Laboratory results from the RNAGym collection of RNA variant scans (doi:10.1073/pnas.2313332121).
This sample holds only a part of the variants without activity.

B1: TPR 5TU (parent)
chain: GGAUCUUCUCGAUCUAACAAAAAAGACAAAUCUGCCACAAAGCUUGAGAGCAUCUUCGGAUGCAGAGGCGGCAGCCUUCGGUGGCGCGAUAGCGCCAACGUUCUCAACUAUGACACGCAAAACGCGUGCUCCGUUGAAUGGAGUUUAUCAUG

Variants of: B1
Assay: polymerase ribozyme fitness, log enrichment relative to wild type (log ratio); higher = more active; in vitro selection for triplet polymerase activity
Outline: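 For each subunit of a heterodimeric triplet polymerase ribozyme, a mutant library was built by PCR and transcribed, then taken through a single in vitro selection round in triplicate. Selection involved annealing to a biotinylated primer, the partner subunit and triplets, incubation frozen at −7 °C, gel excision of extended constructs, capture on streptavidin beads and RT-PCR. Genotypes were retained after Illumina sequencing of inputs and outputs only with ≥10 input reads and ≥1 read in each output. Fitness is defined as the logarithm of a genotype's enrichment relative to wild-type enrichment, using inverse-variance-weighted averages across replicates, with the logarithm taken to base 2.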

| Variant | polymerase ribozyme fitness (log ratio) |
| --- | --- |
| A17C A29U C72U G81C G140U | ≤ -4.2 |
| A16G A49U G62A G92A C96A | ≤ -4.2 |
| A17C A24U C114A | -3.86 |
| U15G U45C G71A G94U U134C A138U U145G | ≤ -4.2 |
| A16C A17G C76G C96A A107G | ≤ -4.2 |
| U15G C32A G88A A97G | ≤ -4.2 |
| A16U G25C C72G C76G C96U A107U A115G C129U | ≤ -4.2 |
| A16C A41C C57G G59C U135A | -3.85 |
| A16G G34U A52U A60G C72G G88U A91U G140C | ≤ -4.2 |
| A16U G65A C69A A91U C93A G100C U101G C123G | ≤ -4.2 |
| A16G A23U A29G A47C G50A C87G A106U U135C A147U | ≤ -4.2 |
| A16G G80A | -0.775 |
| A16C G81A | -0.894 |
| A17G A26C A40U A47C G59A G68A U109G C116G A119C | ≤ -4.2 |
| C14U G74C A107G | ≤ -4.2 |
| A16G C35A | -3.53 |
| A17C C38U A41C A60C | -1.39 |
| A16G C38U U82A C96G | -1 |
| C14U A91G | -3.98 |
| A16C U31A U104G A142C | -2.77 |
| U15G A16C A21U A26C C103U | -3.98 |
| A16U A20U G58C G86A | -3.79 |
| U15G G25C C51A C96G C149G | ≤ -4.2 |
| A17C A40U U55A A60U A66C C85G C116G G141C A147U | ≤ -4.2 |

| Variant | polymerase ribozyme fitness (log ratio) |
| --- | --- |
| A16U C27A G42A U44G U45A A49C A113G U144A | ≤ -4.2 |
| U15G A24U G25C C38G C54G C76G G81C C93A C132U | ≤ -4.2 |
| A16U U53A A66G C87A | ≤ -4.2 |
| A16U G84A | -2.41 |
| U15G C57G C93A C99G | -4.06 |
| U15G C79G | -3.38 |
| A16G A17C A21U A29G U55A C57G A91C C103U U145A | ≤ -4.2 |
| A16C A21U C69U G71A | -1.79 |
| U15G A21C A26U C38G G92A A113C | ≤ -4.2 |
| U15G A24U A60G G92U | 0.475 |
| A16U A49G | -1.93 |
| C14U G50C A98U C108A | ≤ -4.2 |
| A16U G71A A73G C93U A113C C118A G140A | ≤ -4.2 |
| A16U A47C U53A C85G C131A U134A G140U | ≤ -4.2 |
| A16G C57G C76A | -1.31 |
| A16U U56A A60U C93U G141U | -3.72 |
| C14U C35U G84U C131U | -3.79 |
| A16U C38A C85A | -3.78 |
| U15G G59U U135G | -3.96 |
| A16C G86C A110G | ≤ -4.2 |
| U15G C27A | -4.13 |
| A16U A37U C79A C99U U139A A142U | ≤ -4.2 |
| A16G A29G A47U C57U A73C C93G A98G A115G | ≤ -4.2 |
| A16C A89U A91U U127C | ≤ -4.2 |

| Variant | polymerase ribozyme fitness (log ratio) |
| --- | --- |
| C14U C116G G128A C129G U135G | ≤ -4.2 |
| C14U G92C G136A | -2.51 |
| A16U C87U C116U | -2.25 |
| A17G A21C C116U | 0.03 |
| U15C A41G U61G C99U | -2.24 |
| A16G C27A G58C C85A C96G C116U G143C U148A | ≤ -4.2 |
| A16C C27G U53A C54A G74A G94A | ≤ -4.2 |
| A17G A19C G80C G92A C116U G136C G140A | ≤ -4.2 |
| A16G A28U C87A A107C | ≤ -4.2 |
| C14U U55A C85G C93U C96A U102A A115G | ≤ -4.2 |
| C14U U56A G74A C85A C87A C125U G143C A150U G152U | ≤ -4.2 |
| U15G G50A U53A A73U C87A A113C G140U | ≤ -4.2 |
| A17C U55A G68A A73G C85U U127A G141U | ≤ -4.2 |
| C14U C72U C76U C96A G112U | ≤ -4.2 |
| A16C A20G C27U A60G G117A | -3.38 |
| C14U C54U | -1.87 |
| U15G C27G C76U C87G | ≤ -4.2 |
| A16C C36G G92A C108A A113G U139A | ≤ -4.2 |
| A16U A17G C85G | -4.18 |
| A16C C79A A91U C116A C149A | ≤ -4.2 |
| A16U G94A | -2.47 |
| A17C U44G U61G | ≤ -4.2 |
| A16U U61A G74A C96G | ≤ -4.2 |
| C14U C85A U134G A142G A150U | ≤ -4.2 |

| Variant | polymerase ribozyme fitness (log ratio) |
| --- | --- |
| A17C G68A G83A C116A G128A | ≤ -4.2 |
| U15G G74A C96U C125A G141U | ≤ -4.2 |
| A16G A22U C85G G92A C93G C108G A113U G117C | ≤ -4.2 |
| U15G A47C | -0.922 |
| U15A C43U U53G C76A U102G A119G G128U U135G A142U | ≤ -4.2 |
| A16C G83C U146G U148C C149A | ≤ -4.2 |
| A16U A20U U146A | -3.95 |
| U15C A37U G46U G84U U148C | ≤ -4.2 |
| U15A A29U G59U C95U A120G U127G U135C G143A | ≤ -4.2 |
| A16U A22C C51U U55A G74A C99G C114A C131U | ≤ -4.2 |
| C14U U31A G48C G67C A91U | ≤ -4.2 |
| A16G G46U U55A C85A C105A | -4.14 |
| C14U G34U A49C G59C C69A A91C U139A A147C | ≤ -4.2 |
| A16G U33G U55A C95U | -3.89 |
| A16G G34C C35A C54A C93A | ≤ -4.2 |
| C14U U31C C76U G84U A142G G143U U146G | ≤ -4.2 |
| A16C U82A C95G G141A | -3.41 |
| A17G A21G U90C A147C A150U | ≤ -4.2 |
| A16C A89G | -2.25 |
| U15C C93U | -0.331 |
| A16G U33G C95G | ≤ -4.2 |
| A16C C51U C87G C118G G133U | ≤ -4.2 |
| A16U A22C G59A C118A | -3.09 |
| U15C A24G A39G G83A C99G | ≤ -4.2 |

| Variant | polymerase ribozyme fitness (log ratio) |
| --- | --- |
| A16C C35U G80A G94A C118U | -3.33 |
| A17G | 0.0905 |
| A17C | 0.315 |
| A17C C18G A26U A41C U45G A49U U55A G62A G92U C108U C118U | ≤ -4.2 |
| A16G A30U U44A G81A C95U C125G | ≤ -4.2 |
| A17C C76U G92U C129A | -3.05 |
| U15G A23G G50C C51G C63G C96G | ≤ -4.2 |
| A16G U56A | -1.7 |
| C14U G46A A47C C57A G65C G86U C96U | ≤ -4.2 |
| U15G A40C G42A A49G G62C C93A | ≤ -4.2 |
| U15G U55A | -0.257 |
| C14U C35G C75U C76G C95U | -3.81 |
| C14U G50C A89U C93G G143U | ≤ -4.2 |
| A16U G59C A150U | -0.494 |
| U15G U53A | -0.774 |
| U15A G59A A60U C79U C87A | ≤ -4.2 |
| A16G C76U C79A G83U G152U | ≤ -4.2 |
| A17C A26U C75A G84A G141U | ≤ -4.2 |
| A16G C32A C38G U56A A60C C87A C123U A150C | ≤ -4.2 |
| A17C G74U C85A A91G G92C C93G C118A A120C | ≤ -4.2 |
| U15C A23G U82A C93G G126A | -4.14 |
| A16G G128U | -3.4 |
| A17G A28U C32U A39U C57A C95A A110G U144C A147G A150C | ≤ -4.2 |
| U15C G74C G94C | -4.1 |

| Variant | polymerase ribozyme fitness (log ratio) |
| --- | --- |
| A16G A52G C57U A73C C85U C96G | ≤ -4.2 |
| U15G A22G U56G C96U A121U | -0.722 |
| A16C A24G A47C C85G A97C A120G | ≤ -4.2 |
| U15C A17G C35G U56A G117C | -4.19 |
| U15G G152U | -2.98 |
| A16C C87U | -1.85 |
| A16G A19U C93A | -3.75 |
| U15G C129A | -2.55 |
| A17C A19G C51U G59U C75A A91U C116G A121C | ≤ -4.2 |
| A17C A30C | -3.82 |
| U15G C38U C87U U104A | -1.04 |
| U15C A22C C51U G81U C85U G94A A122G | -1.17 |
| A17C C36U A52C G80U G84C A107U U144C | ≤ -4.2 |
| A16C A21U A39C U44A U45A A49G G84A G126U | ≤ -4.2 |
| A17C C95U | 0.45 |
| C14U A107U G117A C118A A142G | ≤ -4.2 |
| C14U U53G | -3.01 |
| A16G A19G A23U A26C U44A U53A C87G C103A | -4.11 |
| A16C G50A C85U | -3.26 |
| A16C A24U G46C C105G C108G | ≤ -4.2 |
| C14U G42A C87U G136A | ≤ -4.2 |
| C14U G25C C38G G67A C69A C96U A121G A147C | ≤ -4.2 |
| U15A A20U | -0.122 |
| A16U A21G C32U G50C U151G | ≤ -4.2 |

| Variant | polymerase ribozyme fitness (log ratio) |
| --- | --- |
| A17C G58U G128A A138U | -4.13 |
| A16C A19G G34A G71A C87G U145A U146C | ≤ -4.2 |
| C14U C57A | -0.738 |
| A16U A37U A52C G112U U139A | ≤ -4.2 |
| A16G C18A A26G C38U G42C G81A C87A C116A | ≤ -4.2 |
| U15A A21G A49G C96G | -1.26 |
| U15C U53A A73G C76U G92C | -1.85 |
| C14U U55A G126A C132U | -1.73 |
| A16G A110G | -3.77 |
| A16C U33A C54A C85A A91G C125G G133U | ≤ -4.2 |
| C14U G48U A52U A138C A142C U148G | ≤ -4.2 |
| U15A A47C C54G A115G U127C U146A | -1.14 |
| A17C C32A U53A G67A G74C U101A | ≤ -4.2 |
| A16U A26C C54A A119C G133C U135A | ≤ -4.2 |
| A16G U31C C51U U53G C125A G140C | ≤ -4.2 |
| A17G A21G A52U U56A A91G | -4 |
| A16U A22C A30U U55A C57A C76G G81U G84C | ≤ -4.2 |
| U15C A21G A24U U53A | 0.983 |
| A17C C76U C93G U102G C105A | ≤ -4.2 |
| A16U A24U U33A C35U C87G | -4.15 |
| A16U C38U C51U A73G G92U G94A A98C U151A | -3.96 |
| A16G C27G C54G G83A G86U A97U C105U U146A | ≤ -4.2 |
| A16G G86U | -2.72 |
